Results as given in patent publication US20050287607A1.
No end group written: not given here. *: point of attachment. Biotin = O=C1N[C@H]2[C@H](CS[C@H]2CCCCC(=O)*)N1

How the values were obtained:
Assay in all cases: flow cytometry, R4A-tetramer staining of splenocytes
[1] = molecular target: peptide-reactive B cells (surface immunoglobulin) in splenocytes of BALB/c mice immunized with MAP-peptide (R4A peptide on a branched polylysine backbone) (mouse)
[2] = molecular target: splenocytes of BALB/c mice immunized with MAP-core (mouse)
[3] = molecular target: splenocytes of BALB/c mice immunized with adjuvant alone (mouse)

- frequency of cells staining (percent of gated cells) (% of gated cells) [1]: 1
- frequency of tetramer-binding cells (percent of the gated population) (% of the gated population) [2]: < 0.05
- frequency of tetramer-binding cells (percent of the gated population) (% of the gated population) [3]: < 0.05
Binder: Biotin-DWEYSLWLSN (peptide, part only; not given: labeled streptavidin, not shown: large carriers, also: tetramer with fluorochrome-labeled streptavidin/neutravidin) [R4A-tetramer (tetrameric fluorochrome-labeled form of the R4A peptide)]
